In patent publication US20250340649A1 (RUTGERS THE STATE UNIVERSITY OF NEW JERSEY, published 2025):
Numbering of substitutions follows the chain as printed.

B1: E5C1 BiKE (BiKE: HER2/CD16a) (bispecific antibody)
chain: QVQLQESGGGLVQAGGSLRLDCAASGRTLSSYVVGWFRQAPGKEREVVAAIGWSRTSTFYTDSVKGRFTISRDNTENTVYLQMNSLKPGDTAVYYCAADSSPRRWDRESDFGSWGQGTQVTVSSPSGQAGAAASESLFVSNHASQVQLQESGGGLVQAGGSLRLSCAASGRTFRLYRMGWFRQAPGKEREFVGSIKMIDGSTLYGDPVKGRFTISRDNTKFMAYLQMNSLKPEDTAVYYCASVSRVTGSYDSWGQGTQVTVSSWELQGSEQKLISEEDLHHHHHHHHHHHH
notes: Monomer by LC-MS; also called BIKE: CD16a/HER2
B2: F4 anti-HER2 VHH (VHH)
VHH: QVQLQESGGGLVQAGGSLKLSCAASGRTLSAYVVGWFRQAPGKERESVAAIGWSSRSPYYPDSVKGRFTISEDNTKNTVYLQMNSLKPDDTAVYYCAADSYPRRWDRESDFGSWGQGTQVTVSS
B3: D6 anti-HER2 VHH (VHH)
VHH: B2 VHH with K19T, L29F, A31T, S54A, R56N, P61A, E72R, N84K
B4: F2 anti-HER2 VHH (VHH)
VHH: B2 VHH with K43R, S55T, R56H, P58V, P61A, E72R, K76E, Y101S
B5: H7 anti-HER2 VHH (VHH)
VHH: B2 VHH with K19R, R27H, A31T, G35A, S55T, P61A
B6: E9 anti-HER2 VHH (VHH)
VHH: B2 VHH with L11S, K43R, S55T, R56H, P58V, P61A, E72R, K76E, Y101S

How the values were obtained:
[1] = biological target: T1, Biotinylated Human Her2/ErbB2 Protein, His, Avitag (AcroBiosystem HE2-H82E2) (human, UniProt P04626 23-652, biotinylated (Avitag)); test: ELISA on HER2, tenfold dilutions 0-1000 nM; the HER2 form is not stated for this ELISA, Table 17 lists only the biotinylated HER2
T1 construct: Bought protein; Loaded on streptavidin sensors for BLI; also called biotinylated HER2; HER2 antigen

[2] = biological target: T2, Biotinylated Human Fc gamma RIIIA/CD16a (F176) Protein, Avitag, His Tag (Acrobiosystems CDA-H82E8) (human, UniProt P08637 17-208, biotinylated (Avitag)); test: ELISA, biotinylated CD16a on streptavidin plate, tenfold dilutions 0-1000 nM, anti-cMyc-HRP
T2 construct: also called biotinylated CD16a; CD16a antigen
Method: For ELISA, 50 μL of biotinylated CD16a was added to the streptavidin-coated plate and incubated for 45 min at RT. […] Next, 100 μl anti-cMyc tag HRP conjugated secondary antibody (1:10,000 dilutions) was added. Finally, after washing, the substrate was added for color development, and the plate was read using OD of 450 nm.

[3] = biological target: T3, Biotinylated Human Fc gamma RIIIB/CD16b (NA2) Protein, His, Avitag (Acrobiosystems CDB-H82Ea) (human, UniProt O75015 17-200, biotinylated (Avitag)); test: BLI (Octet), biotinylated CD16b-NA2 on streptavidin sensor, BiKE 1.875-60 nM
T3 construct: NA2 allele; also called CD16-NA2
Method: (§1) An Octet® Streptavidin (SA) Biosensor was soaked for at least 10 min in DPBS supplemented with 0.1% Casein, biotinylated CD16a, CD16b-NA1, CD16b-NA2, and HER2 antigens were loaded onto the streptavidin (SA) biosensor until 1 nm shift was reached. Next, the sensor was dipped into the washing buffer (DPBS+0.05% Tween 20+0.1% Casein) for 2 min to reach the baseline. […] Then, in the dissociation step, sensors were dipped into the washing buffer for 5 min to acquire data (Table 5). The data were then analyzed using Octet Data Analysis HT 11.1 software. The sensorgrams were subtracted from the reference and fitted into 1:1 binding model for data analysis. Finally, the affinity and kinetics were analyzed using “Association and Dissociation”.

[4] = biological target: T4, HER2 on the surface of HER2+ cancer cells (BT474, SKOV-3) (human, UniProt P04626 23-1255); test: flow cytometry, SKOV-3 (HER2+) cells, tenfold dilutions 0.001-1000 nM
T4 construct: whole, on cells; also called human epidermal growth factor receptor 2

[5] = biological target: T2, Biotinylated Human Fc gamma RIIIA/CD16a …; test: BLI (Octet), biotinylated CD16a on streptavidin sensor, BiKE 1.875-60 nM
Method: as §1

[6] = biological target: T5, Biotinylated Human Fc gamma RIIIB/CD16b (NA1) Protein, His, Avitag (Acrobiosystems CDB-H82E4) (human, UniProt O75015 17-200, biotinylated (Avitag)); test: BLI (Octet), biotinylated CD16b-NA1 on streptavidin sensor, BiKE 1.875-60 nM
T5 construct: NA1 allele; also called CD16b-NAI
Method: as §1

[7] = biological target: T6, CD16a on NK92 (CD16+) cells (human, UniProt P08637 17-254); test: flow cytometry, fixed haNK92 (CD16+) cells, tenfold dilutions, anti-histag-FITC
T6 construct: whole, on cells; also called NK92 cells (CD16a+); haNK92 cells (CD16a+)
Method: First, CD16a+NK92 was harvested and washed once using Dulbecco's phosphate-buffered saline (DPBS) supplemented with 2% FBS (2% DPBS-FBS). Next, all the cells were fixed using 3.7% paraformaldehyde for 20 min at RT, followed by washing twice. […] Following washing three times, the secondary antibody, anti-Histag antibody FITC labeled, was added. After washing, the samples were run on Cytoflex using FL1 channel.

[8] = biological target: T4, HER2 on the surface of HER2+ cancer …; test: flow cytometry on SKOV-3 cells (HER2+), 100 nM binding sites
Method: (§2) OVASC-1 is an ascites-derived epithelial ovarian cancer cells obtained from a patient with advanced metastatic disease (11, 12). The expressed VHHs were then incubated with HER2⁺ (BT474, JIMT-1, and SKOV-3) and HER2⁻ (MDA-MB-231) cancer cell lines. Approximately 10⁶ cells were counted and washed using DPBS-1% FBS. […] After washing, FITC-conjugated anti-Human IgG or anti-Histag antibody were added and incubated on ice for 60 min. Cells were washed three times and then analyzed using Beckman-Coulter Gallios flow cytometer at Rutgers Flow cytometry core facility.
(§3) In the next step, the ability of the VHHs to recognize and bind to HER2 on the surface of HER2+ cancer cells was evaluated. […] MDA-MB-231 and OVASC-1 (HER2⁻) cancer cells were used as negative controls.

HER3 = biological target: T7, HER3 (human, UniProt P21860 20-643, limits assumed); test: ELISA, periplasmic extract on coated antigen, anti-HA-HRP
T7 construct: also called Recombinant Human ErbB 3 protein, Abcam ab196072
Text: (§4) FIGS. 4A-4B. FIG. 4A) PBMCs were isolated using Ficoll-Paque method. Then, the RNAs were extracted, cDNA library was generated, genes amplified, and then cloned into pMECS-GG phagemids. The phagemids were used in phage display and the screened candidates were used to infect TG1 bacteria. Colonies were selected, grown, lysed, and the lysates removed. FIG. 4B) The lysates were then used in ELISA to screen for VHHs with the highest affinity to HER2 and with negligible binding to HER1, HER3, and HER4. Bovine serum albumin (BSA) and skim milk were used as controls.
(§5) The next day, each well was washed three times with washing buffer (DPBS+0.1% Tween 20) and then incubated with blocking buffer (2% skimmed milk) for 2 h at RT to block the free binding sites. Next, blocking buffer was replaced with 100 μL of periplasmic extract from above and incubated for 1 h at RT while shaking at 700 rpm. Each well was washed six times with washing buffer (DPBS+0.1% Tween 20) followed by addition of 100 μL HRP Anti-HA tag antibody (1:10000 dilution) and incubation for 1 h at RT while shaking at 700 rpm. Each well was washed again six times, followed by addition of 50 μL 1-Step™ Turbo TMB-ELISA substrate solution at incubation at RT for 15 min (without shaking and at dark). The reaction was stopped by adding 50 μL of stop solution ([…] sulfuric acid) and the plate was read at 450 nm using 630 nm as a reference (450/630 nm).

HER1 = biological target: T8, HER1 (human, UniProt P00533 25-645); test: as above
T8 construct: The text says only 'HER1'; also called Recombinant human EGFR protein (Fc Chimera), Abcam ab155726; Fc part of the bought chimera not given
Text: as §4, §5

Bovine serum albumin = biological target: T9, Bovine serum albumin (bovine, UniProt P02769 25-607); test: as above
T9 construct: Control antigen; also called BSA
Text: as §4, §5

[9] = biological target: T4, HER2 on the surface of HER2+ cancer …; test: flow cytometry on BT-474 cells (HER2+), 100 nM binding sites
Method: as §2, §3

T9 sequence (P02769 25-607 limits assumed): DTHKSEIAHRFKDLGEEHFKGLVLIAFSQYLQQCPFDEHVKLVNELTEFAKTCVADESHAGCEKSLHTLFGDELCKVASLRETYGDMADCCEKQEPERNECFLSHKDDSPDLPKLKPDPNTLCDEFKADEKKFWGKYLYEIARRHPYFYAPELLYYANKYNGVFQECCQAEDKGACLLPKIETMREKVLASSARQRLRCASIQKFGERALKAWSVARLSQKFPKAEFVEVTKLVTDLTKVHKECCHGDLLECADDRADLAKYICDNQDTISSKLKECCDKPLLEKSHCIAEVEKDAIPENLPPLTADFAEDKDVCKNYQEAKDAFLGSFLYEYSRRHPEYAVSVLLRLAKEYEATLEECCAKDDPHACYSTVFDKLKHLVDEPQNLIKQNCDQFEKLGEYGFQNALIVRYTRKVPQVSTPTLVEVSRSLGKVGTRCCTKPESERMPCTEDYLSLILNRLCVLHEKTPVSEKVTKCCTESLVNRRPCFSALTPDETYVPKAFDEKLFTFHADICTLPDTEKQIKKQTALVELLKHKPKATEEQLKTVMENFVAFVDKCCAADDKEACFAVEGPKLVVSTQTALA
T2 sequence (P08637 17-208 limits assumed): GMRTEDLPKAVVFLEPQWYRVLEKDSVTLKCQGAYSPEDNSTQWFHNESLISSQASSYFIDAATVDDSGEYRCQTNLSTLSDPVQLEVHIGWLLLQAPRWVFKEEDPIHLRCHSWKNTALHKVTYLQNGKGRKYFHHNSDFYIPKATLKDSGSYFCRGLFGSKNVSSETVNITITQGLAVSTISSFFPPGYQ
T5 sequence (O75015 other isoform, or with tags, fused parts or gaps limits assumed): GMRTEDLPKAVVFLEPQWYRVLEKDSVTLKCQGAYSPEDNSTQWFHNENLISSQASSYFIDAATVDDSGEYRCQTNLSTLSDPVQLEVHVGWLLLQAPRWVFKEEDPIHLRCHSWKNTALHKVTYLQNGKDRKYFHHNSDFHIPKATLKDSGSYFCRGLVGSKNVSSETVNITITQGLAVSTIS
T3 sequence (O75015 17-200 N65S limits assumed): as the sequence (O75015 other isoform, or with tags, fused parts or gaps limits assumed) above, with R20S, N49S, D66N, V90I counted along it
T6 sequence (P08637 17-254 F176V): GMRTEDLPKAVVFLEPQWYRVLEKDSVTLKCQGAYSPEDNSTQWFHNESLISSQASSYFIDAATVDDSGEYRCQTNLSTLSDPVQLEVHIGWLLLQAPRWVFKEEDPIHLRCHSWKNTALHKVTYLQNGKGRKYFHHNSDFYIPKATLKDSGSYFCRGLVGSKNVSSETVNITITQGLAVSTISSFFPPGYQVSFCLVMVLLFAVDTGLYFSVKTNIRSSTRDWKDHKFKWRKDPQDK

| Binder | FITC+ (%) [8] [%] | FITC- (%) [8] [%] | Mean (MFI) [8] | binding result (HER3) | binding result (HER1) | binding result (Bovine serum albumin) | FITC+ (%) [9] [%] | FITC- (%) [9] [%] | Mean (MFI) [9] | also measured |
| --- | --- | --- | --- | --- | --- | --- | --- | --- | --- | --- |
| B1 |  |  |  |  |  |  |  |  |  | EC50 (read off the curve) [1]: ~0.4 nM; EC50 (read off the curve) [2]: ~0.3 nM; Kd [3]: 6.71 nM; koff [3]: 0.000946 s⁻¹; kon [3]: 140000 M⁻¹ s⁻¹; EC50 (read off the curve) [4]: ~1 nM; Kd [5]: 2.7 nM; koff [5]: 0.00051 s⁻¹; kon [5]: 189000 M⁻¹ s⁻¹; Kd [6]: 1730 nM; koff [6]: 0.0743 s⁻¹; kon [6]: 42900 M⁻¹ s⁻¹; EC50 (read off the curve) [7]: ~1 nM |
| B2 | 93.3 | 6.51 | 86400 | no binding (tested: extract, conc. not given) | no binding (tested: extract, conc. not given) | no binding (tested: extract, conc. not given) | 98.5 | 1.45 | 99500 |  |
| B3 | 94.6 | 5.24 | 89400 | no binding (tested: extract, conc. not given) | no binding (tested: extract, conc. not given) | no binding (tested: extract, conc. not given) | 98.1 | 1.86 | 96100 |  |
| B4 | 93.1 | 6.68 | 100000 | no binding (tested: extract, conc. not given) | no binding (tested: extract, conc. not given) | no binding (tested: extract, conc. not given) | 98.6 | 1.42 | 99500 |  |
| B5 | 94.8 | 5.02 | 99900 | no binding (tested: extract, conc. not given) | no binding (tested: extract, conc. not given) | no binding (tested: extract, conc. not given) | 98.3 | 1.72 | 100000 |  |
| B6 | 93.1 | 6.76 | 88100 | no binding (tested: extract, conc. not given) | no binding (tested: extract, conc. not given) | no binding (tested: extract, conc. not given) | 98.2 | 1.85 | 97900 |  |
